According to patent publication US20230226096A1 (Orna Therapeutics, Inc., priority 2020, published 2023):

B1: EV K (nucleic acid)
DNA: TCAGCCTGACGCAAGTGCCTCCATTGGAGTCTCTCCAAGCCCTCCGGGGCTTGGAGGGCGCCGACCCCCTGCCTAGGGGGAGCCCACGACACGGCTGGAGTCCATTGGCACACCGCAGCCACGATTCAAGCCAGAATTGAAAGCGGGAAGCACTTCTGTCTCCCCGGTGTGGATCATACGCTGTACCCACGGCGAAAAGTGAAGCATCGTTACCCGACTCGGTACTTCGAGAAGCCCAGTACAGTTGTGGATCTCTGCAGGGTATACGCTCAGCGTGACCCCTACGTAGTTCCTTGAGATGGCTGAGAGAACACCCCACGGGCGACCGTGTCTCTCGGCGCGTGGCTCAAGGCCGGGCCTTCAGTGGCTCGGTGCCTTGCAGAGTGAAGCCTCCGAACAGCCTATTGAGCTACCGTTTAGCCTCCGCCCTCTTGAATGCGGCTAATCCTAACCATGGAGCGCCCGCCCACAGTCCAGTGGGTAGAGCGTCGTAACGCGCAAGTCCGTGGCGGAACCGACTACTTTAGAGTGGCGTGTTTCCAATTTATCCTTTATAAAGTTGCTTATGGTGACACCACAAGAGATCCACGATTTCTTGTTTCTTATCACTGAGACACAAGTCATATTCATCAATCTTTATTGCGGAATTAACTTGGTGCGTCCAAACACATCAGC
modifications: Enterovirus K
B2: PSIV (2x mut for Xba1) (nucleic acid)
DNA: GCAAAATGGGTACGTAGTTAACCACTGCGTATCAGGATTGCAGGCCACGAAGGGTATTTGCATATCTTTCTATGCGGTATTACGGCTTAAAACCCGTTGTATCTTGTTGTTTGACTGCCTGTATCACTAGTGGCCATTTTATTTAGGTTAGAGACCCCTGATAGTAGGAGAGTTACAAACTCTTTAAAAATTGTTGACCCCGGAAAAGATGGTGACCCCTGTAAGTAGTTGATCAAGAAGATCTATGCGCTGGCATAGTAATCCAGTGTTTCCTGTTTTAGGATGACCTCTGAAAGTAGATGACCGTGGAAAGTCACGTAGTGCCCCAATAAGCACGTTTGGGCAGCGTGCGCTATCACAAGGCTTGATCTCCGAGGAGCCCCTTGTTTTAGCTGGCTGGAAGCCAATGATCTTAAGTAGATAAGTGCTGTTGCTTGTAGTTCAACAGAAAGCTTTGAGTACGTCTTTCTTGCGAGAAAGAACACATGCATTCTTATGCTCTCAATTCTATTATTTTTATTTTGGGCGAAAGGAAAGCTCTCACGCGAGTACGAATAGCCAACCCTTTAT
B3: EV J 1631 (nucleic acid, listed as Enterovirus sp.)
DNA: CACCCTGAGGGCCCACGTGGCGTAGTACTCTGGTATCAAGGTACCTTTGTACGCCTATTTTATTTCCCTTCCCCCACAGTAACTTAGAAGCTTATCTCATAGTTCAACAGTAGGGTCACTAACCAAGTGGCTCAGCGAACAAGCACTTCTGTTTCCCCGGTCCTAGTACCTGTGAAGCTGTACCCACGGCGGAAGGGGAAAAAGATCGTTATCCGGCCCCCTACTTCGGAAAGCCTAGTAACACCATTGAAGCAATCGAGTGTTGCGCTCAGCACAGTAACCCCTGTGTAGCTTTGGTTGATGAGTCTGGGCACTCCCCACTGGCGACAGCGGCCCAGGCTGCGTTGGCGGCCAACCGACTCGGGCAACCGGGTCGGACGCTCGTTTGTGGACATGGTGTGAAGAGCCTACTGAGCTAGAGGGTAGTCCTCCGGCCCCTGAATGCGGATAATCCTAACCCCGGAGCACCCACACTCAATCCAGAGTGCAGGATGTCGTAACGCGTAAGTCTGGGACGGAACCGACTACTTTGGGTGTCCGTGTTTCCTGTTTTACTTACTTTGGCTGCTTATGGTGACAATCTAGTGTTGTTACCATATAGCTATTGGATTGGCCATCCGGTGTTTTGAATTGTGTGTTTATACTAATTCTTTTACATATCACAGACAACCAAAT
B4: EV J N125 (nucleic acid, listed as Enterovirus sp.)
DNA: CGGTACCTTTGTACGCCTATTTTACCCCCTTCCCCTTGTAACTTAGAAGCAAAGCAAACCAGTTCAATAGTAAGCAACACAACCCAGTGTTGTGACGAACAAGTACTTCTGTTTCCCCGGGAGGGTCTGACGGTAAGCTGTACCCACGGCTGAAGTATGACCTACCGTTAACCGGCTACCTACTTCGAGAAGTCTAGTAATACCATTGAAGTTTTGTTGGCGTTACGCTCAACACACTACCCCGTGTGTAGTTTTGGCTGATGAGTCACGGCATTCCCCACGGGCGACCGTGGCCGTGGCTGCGTTGCGGCCAACCAAGGGGCGCAAGCTCCTTGGACGTCACTTAACAGACATGGTGTGAAGAACCTATTGAGCTAGGTAGTAGTCCTCCGGCCCCTGAATGCGGCTAATCCTAACTCCGGAGCACATCAGTGCAACCCAGCATTTGGTGTGTTGTAATACGCAAGTCTGGAGCGGAACCGACTACTTTGGGTGTCCGTGTTTCCTGTTTTACCTTATTTGGCTGCTTATGGTGACAATTTGATATTGTTACCATATAGCTGTTGGATTGGCCATCCGGATTTTTGAAAGAGACCCAAAACTTTCTTCTCTACTTCAGATTCAAGTGCGAAGTTTTCCTTTTCATATATTACTTACTAATTTGAAGTACCAAAG
B5: EV I (nucleic acid)
DNA: TTAGTACTTTCTCACGGGGATAGTGGTATCCCTCCCTAGTAATTTAGAAGACTTGAAAAACCGACCAATAGGCACCTCGCATCCAGCGGGGTAAAGGTCAAGCACTTCTGTTTCCCCGGGTCGAGTAGCGATAGACTGTGCCCACGGTCGAAGGTGAAACAACCCGTTATCCGACTTTGTACTTCGGGAAGCCTAGTACCACCAAAGATTATGCTTGGGGTTTCGCTCAGCACGACCCTGGTGTAGATCAGGCCGATGGATCACCGCATTCCTCACAGGCGACTGTGGCGGTGGTCGCGTGGCAGCCTGCCGATGGGGCAACCCATCGGACGCCAAGCATATGACAGGGTGTGAAGAGCCTACTGAGCTACAAAGTATTCCTCCGGCCCCTGAATGCGGCTAATCCCAACCACGGAGCATTTGCTACCAAACCAGGTAGTGGAATGTCGTAACGGGTAACTCTGTGGCGGAACCGACTACTTTGGGTGTCCGTGTTTCCTTTTAATTTATCATTCTGTATATGGTGACAACTATAGTGCTATCTCGATTTGCATTACTATTGTTGAGATTAAAACTTTATTACATTGTTGCATTTTACCCTTTGAGTGAGTTTTCACCTGAACAGATTAATTTACTCATCCTGTTTATATATTACAAGCAGAAATACTTGCAAAG
modifications: Enterovirus I
B6: EV F1 BEV 261 (nucleic acid, listed as Enterovirus sp.)
DNA: GCAATGCTGCACCAGTGCACTGGTACGCTAGTACCTTTTCACGGAGTAGATGGTATCCCTTACCCCGGAACCTAGAAGATTGCACACAAACCGACCAATAGGCGCACCGCATCCAGCCGTGCAGCGGTCAAGCACTTCTGTCTCCCCGGTCTGTAAAGATCGTTATCCGCCCGACCCACTACGAAAAGCCTAGTAACTGGCCAAGTGAACGCGAAGTTGCGCTCCGCCACAACCCCAGTGGTAGCTCTGGAAGATGGGGCTCGCACCACCCCCGTGGTAACACGGTTGCCTGCCCGCGTGTGCTTCCGGGTTCGGTCTCGTGCCGTTCACTTCAACTTCACGCAACCAGCCAAGAGCCTATTGTGCTGGGACGGTTTTCCTCCGGGGCCGTGAATGCTGCTAATCCCAACCTCCGAGCGTGTGCGCACAATCCAGTGTTGCTACGTCGTAACGCGTAAGTTGGAGGCGGAACAGACTACTTTCGGTACCCCGTGTTTCCTCTCATTTTATTTAATATTTTATGGTGACAATTGTTGAGATTTGCGCTCTTGCAACGTTGCCATTGAATATTGGCTTATACTATTTGGTTGCCTTTTACAAAACCTCTGATATACCCAGTTCTTACATTGATCTGCTTGTTTTTCTCAATTTGAAGTATAGACTACAAATAGCAAA
B7: EV D94 (nucleic acid, listed as Enterovirus sp.)
DNA: CGTGGCGGCCAGTACTCTGGTATCACGGTACCTTTGTACGCCTGTTTTATATCCCCTTCCCCCGCAACTTAGAAGAAAACAAATCAAGTTCACTAGGAGGGGGTACAAACCAGTACCACCACGAACAAGCACTTCTGTTTCCCCGGTGATGTCGTATAGACTGTAACCACGGTTGAAAACGATTGATCCGTTATCCGCTCTTGTACTTCGAAAAGCCCAGTATCACCTTGGAATCTTCGATGCGTTGCGCTCAGCACTCAACCCCAGAGTGTAGCTTAGGTCGATGAGTCTGGACACTCCTCACCGGCGACGGTGGTCCAGGCTGCGTTGGCGGCCTACCTGTGGTCCAAAGCCACAGGACGCTAGTTGTGAACAAGGTGTGAAGAGCCTATTGAGCTACAAGAGAATCCTCCGGCCCCTGAATGCGGCTAATCCTAACCACGGAGCAAGGGTACACAAACCAGTGTATATCTTGTCGTAACGCGCAAGTCTGTGGCGGAACCGACTACTTTGGGTGTCCGTGTTTCCTTTTGTTTTTATCATGGCTGCTTATGGTGACAATCTAAGATTGTTATCATATAGCTGTTGGATTGGCCATCCGGTAATTTATTGAGATTTGAGCATTTGCTTGTTTCTTCAACAATTTCACCTATTCATTGCATTTCAGCAGTCAAA
B8: EV C102 (nucleic acid, listed as Enterovirus sp.)
DNA: CTTTGTACGCCTGTTTTACATCCCCTCCCCCACGTAACTTTAGAAGCAATTCAACAAGTTCAATAGAGGGGGTACAAACCAGTATCACCACGAACAAGCACTTCTGTTTCCCCGGTGATTTTACATAAGCTGTGCCCACGGCTGAAAGTGAATGATCCGTTACCCGCTCGAGTACTTCGAAAAGCCTAGTATCGCTTTGGGATCTTCGACGCGTTGCGCTCAGCACTCTACCCCGAGTGTAGCTTAGGCTGATGAGTCTGGGCATTCCCCATCGGCGACGATGGCCCAGGCTGCGTTGGCGGCCTACCCATGGCTAACGCCATGGGACGCTAGTTGTGAACAAGGTGTGAAGAGCCTATTGAGCTACTCGAGAGTCCTCCGGCCCCTGAATGCGGCTAATCCCAACCACGGATCAGGTGCCTCCAACCCAGGAGGTGGCCTGTCGTAACGCGCAAGTCTGTGGCGGAACCGACTACTTTGGGTGTCCGTGTTTCCTTTTATCTTTTAAATGGCTGCTTATGGTGACAATCATAGATTGTTATCATAAAGCGAATTGGATTGGCCATCCGGTGAAATACAAACACATTATTTACTTGTTTGTTGGATTTACTCCGCTCACACAGCTTACTCCTAAGATAATATTTATTGTATTGCTGGTAAGGAGACACTATTATA
B9: EV 30 (nucleic acid, listed as Enterovirus sp.)
DNA: AAGCAAGGCAAACCTGACCAATAGTAGGTGTGGCACACCAGCCGCATTTTGGTCAAGCACTTCTGTTTCCCCGGACCGAGTATCAATAAGCTGCTCACGCGGCTGAAGGAGAAACCGTTCGTTACCCGACCAGCTACTTCGAGAAACCTAGTAACACTATGAACGTTGCGGAGTGTTTCGTTCAGCACTTCCCCCGTGTAGATCAGGTCGATGAGTCACCGCATTCCTCACGGGTGACCGTGGCGGTGGCTGCGTTGGCGGCCTGCCTACGGGTTCGCCCGTAGGACGCTCTAATACCGACATGGTGTGAAGAGTCCATTGAGCTAGCTGGTAGTCCTCCGGCCCCTGAATGCGGCTAATCCTAACTGCGGAGCAGGTGCTCACAGACCAGTGAGTAGCCTGTCGTAACGGGCAACTCTGCAGCGGAACCGACTACTTTGGGTGTTTTTCCTTTTTTCTTCTCTTATATTGGCTGCTTATGGTGACAATTAAAGAATTGTTACCATATAGCTATTGGATTGGCCATCCGGTGACGAGCAGAGCCATTGTTTACCTCTTTGTTGGATTTGTACCTTTGAACCACAAAGTCTTGAATACCATTCATCTCATTTTAAAGTTCAACTCAGCTAAAAGAAA

Tested on: HEK293 cells
Format: cell-based, human
Conditions: luminescence from secreted Gluc in supernatant 24 hours after transfection of HEK293 cells; circular RNA encoding Gluc with the named IRES (UTR truncated to 675 nt)

Molecule | Expression
B1 | 7.52E+07
B2 | 9.70E+04
B3 | 9.88E+07
B4 | 2.90E+07
B5 | 1.31E+08
B6 | 1.12E+07
B7 | 9.25E+07
B8 | 8.85E+07
B9 | 5.48E+06
